We go through 24 molecules from US20190315854A1 (BEIJING VDJBIO, published 2019).

Substitutions are numbered along the chain they refer to. Like-named read-outs stand apart in the source and are kept apart here.

What all share (assay): SPR (BIAcore 3000), antibody on chip, sIL-6R analyte, 25 C
In experiment [1] the target is T1, sIL-6R (soluble IL-6 receptor; SBH Sciences) (human, UniProt P08887 20-365).
T1 construct: also called human IL-6R
T1 sequence: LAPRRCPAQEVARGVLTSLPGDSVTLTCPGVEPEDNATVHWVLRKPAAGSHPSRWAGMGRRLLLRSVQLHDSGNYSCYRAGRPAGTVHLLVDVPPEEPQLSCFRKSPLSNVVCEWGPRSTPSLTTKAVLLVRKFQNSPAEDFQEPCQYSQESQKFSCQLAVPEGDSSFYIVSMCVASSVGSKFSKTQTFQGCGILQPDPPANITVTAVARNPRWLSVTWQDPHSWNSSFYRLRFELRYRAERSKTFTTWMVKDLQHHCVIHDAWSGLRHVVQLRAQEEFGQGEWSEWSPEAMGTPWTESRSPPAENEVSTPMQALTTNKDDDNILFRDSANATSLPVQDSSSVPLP
The protocol:
(§1) All SPR measurements were performed on a BIAcore 3000 instrument (GE Biosciences, Piscataway, N.J.). BIAcore Software-BIAcore 3000 Control Software V3.2 was used for the operation and control of the BIAcore 3000 instrument. BiaEvaluation Software V4.1 was used for the analysis of SPR data from the BIAcore 3000 instrument and data was plotted using Graph Pad Prism Software Version 5. […] The indicated antibodies were used as the ligand for the construction of the reference channel of the chip. […] Each sample was injected for 3 min at a flow rate of 30 μL/min to allow for binding to chip-bound antibody. Next, binding buffer without analyte was sent over the chip at the same flow rate to allow for dissociation of bound analyte. After 500s, remaining bound analyte was removed by injecting regeneration solution (1M Formic acid). Data was analyzed by using the Kinetics Wizard and the manual fitting programs that are both included with the BiaEvaluation Software V4.1.

In experiment [2] the target is T1, sIL-6R (soluble IL-6 receptor; SBH …). The protocol:
as §1
The source holds these as a separate data set.

For experiment [3] the target is unchanged. The procedure: as §1
This is another data set of the same source.

B1: 3# (antibody, human IgG1, kappa, V domains shown)
VH: QVQLQESGPGLVRPSQTLSLTCTVSGYSITSDHAWSWVRQPPGRGLEWIGYISYSGITTYNPSLKSRVTMLRDTSKNQFSLRLSSVTAADTAVYYCARSLARATAMDYWGQGSLVTVSS
VL: DIQMTQSPSSLSASVGDRVTITCRASQDISSYLNWYQQKPGKAPKLLIYYTSRLHSGVPSRFSGSGSGTDFTFTISSLQPEDIATYYCQQGNTLPYTFGQGTKVEIKR
notes: also called Sample # 3
B1: in experiment [1], binding was characterised by a dissociation constant (Kd) of 0.435 nM, the “Relative Affinity” value was 3.9 fold vs 25 (Tocilizumab), the koff amounted to 8.87e-05 s⁻¹ and the kon was determined as 204000 M⁻¹ s⁻¹. Besides, in experiment [2], the Kd was 0.273 nM, the “Relative Affinity” value was 4.9 fold vs 25 (Tocilizumab), the koff came to 5.8e-05 s⁻¹ and the kon was found to be 213000 M⁻¹ s⁻¹.

B2: 241# (antibody, human IgG1, kappa, V domains shown)
VH: B1 VH with I57M, S99C, A103M, M106I, Y108F
VL: B1 VL with Q89G, T93R
As to B2, in experiment [3], binding was characterised by a dissociation constant (Kd) of 0.202 nM, the “Relative Affinity” value is 15.6 fold vs 25 (Tocilizumab), the koff amounted to 3.61e-05 s⁻¹ and the kon was 179000 M⁻¹ s⁻¹.

B3: 7# (antibody, human IgG1, kappa, V domains shown)
VH: B1 VH with A103T, M106I
VL: B1 VL
notes: also called Sample # 7
B3: in experiment [2], the Kd is 0.763 nM, the “Relative Affinity” value is 1.8 fold vs 25 (Tocilizumab), the koff was determined as 0.000177 s⁻¹ and the kon came out at 232000 M⁻¹ s⁻¹.

B4: 35# (antibody, human IgG1, kappa, V domains shown)
VH: B1 VH with A103M
VL: B1 VL
notes: also called Sample # 35
B4: in experiment [1], the Kd was determined as 0.648 nM, the “Relative Affinity” value is 2.6 fold vs 25 (Tocilizumab), the koff was 0.000146 s⁻¹ and the kon stood at 225000 M⁻¹ s⁻¹.

B5: 239# (antibody, human IgG1, kappa, V domains shown)
VH: B1 VH with I57M, T58I, S99C
VL: B1 VL with Q89G, T93R
For the molecule B5, in experiment [3], the Kd is 0.164 nM, the “Relative Affinity” value is 19.3 fold vs 25 (Tocilizumab), the off-rate (koff) is 2.36e-05 s⁻¹ and the kon was determined as 144000 M⁻¹ s⁻¹.

B6: 233# (antibody, human IgG1, kappa, V domains shown)
VH: B1 VH with I57M, T58I, S99T, A103T, M106I, Y108F
VL: B1 VL
Regarding B6, in experiment [3], the Kd was found to be 0.387 nM, the “Relative Affinity” value was 8.2 fold vs 25 (Tocilizumab), the koff was found to be 5.75e-05 s⁻¹ and the kon came out at 149000 M⁻¹ s⁻¹.

B7: 45# (antibody, human IgG1, kappa, V domains shown)
VH: B1 VH with S99T, A103T
VL: B1 VL
notes: also called Sample # 45
On to B7, for which, in experiment [1], the Kd is 0.605 nM, the “Relative Affinity” value was 2.8 fold vs 25 (Tocilizumab), the koff worked out at 0.000106 s⁻¹ and the kon worked out at 175000 M⁻¹ s⁻¹.

B8: 236# (antibody, human IgG1, kappa, V domains shown)
VH: B1 VH with I57M, S99C
VL: B1 VL
Consider B8, for which, in experiment [3], binding was characterised by a dissociation constant (Kd) of 0.0829 nM, the “Relative Affinity” value was 38.1 fold vs 25 (Tocilizumab), the koff was determined as 1.53e-05 s⁻¹ and the kon is 185000 M⁻¹ s⁻¹.

B9: 11# (antibody, human IgG1, kappa, V domains shown)
VH: B1 VH with Y51F
VL: B1 VL
notes: also called Sample # 11
As for B9, in experiment [1], the Kd is 0.112 nM, the “Relative Affinity” value was 15.3 fold vs 25 (Tocilizumab), the koff was determined as 3.08e-05 s⁻¹ and the kon amounted to 276000 M⁻¹ s⁻¹. For the same molecule, in experiment [2], binding was put at a Kd of 0.0863 nM, the “Relative Affinity” value was 15.5 fold vs 25 (Tocilizumab), the koff worked out at 2.38e-05 s⁻¹ and the kon is 275000 M⁻¹ s⁻¹.

B10: 245# (antibody, human IgG1, kappa, V domains shown)
VH: B1 VH with I57M, T58I, S99T, A103M
VL: B1 VL with Q89G, T93R
On to B10, for which, in experiment [3], the Kd amounted to 0.25 nM, the “Relative Affinity” value is 12.6 fold vs 25 (Tocilizumab), the koff was determined as 3.53e-05 s⁻¹ and the kon came to 141000 M⁻¹ s⁻¹.

B11: 26# (antibody, human IgG1, kappa, V domains shown)
VH: B1 VH with I57M, A103T
VL: B1 VL
notes: also called Sample # 26
With B11, in experiment [2], the Kd was found to be 0.42 nM, the “Relative Affinity” value is 3.2 fold vs 25 (Tocilizumab), the koff was determined as 0.000102 s⁻¹ and the kon came to 243000 M⁻¹ s⁻¹.

B12: 238# (antibody, human IgG1, kappa, V domains shown)
VH: B1 VH with I57M, T58I, S99C, A103T
VL: B1 VL with Q89G, T93R
Consider B12, for which, in experiment [3], the Kd is 0.111 nM, the “Relative Affinity” value is 28.5 fold vs 25 (Tocilizumab), the koff came out at 1.5e-05 s⁻¹ and the kon was found to be 135000 M⁻¹ s⁻¹.

B13: 235# (antibody, human IgG1, kappa, V domains shown)
VH: B1 VH with I57M, T58I, S99T, A103M, M106I, Y108F
VL: B1 VL
For the molecule B13, in experiment [3], the Kd came to 0.297 nM, the “Relative Affinity” value is 10.6 fold vs 25 (Tocilizumab), the koff was 3.81e-05 s⁻¹ and the kon stood at 128000 M⁻¹ s⁻¹.

B14: 242# (antibody, human IgG1, kappa, V domains shown)
VH: B1 VH with I57M, T58I, A103M, M106I, Y108F
VL: B1 VL with Q89G, T93R
notes: also called Sample # 242
B14: in experiment [3], the Kd stood at 1.24 nM, the “Relative Affinity” value is 2.6 fold vs 25 (Tocilizumab), the koff worked out at 8.71e-05 s⁻¹ and the kon came to 70200 M⁻¹ s⁻¹.

B15: 244# (antibody, human IgG1, kappa, V domains shown)
VH: B1 VH with S99T, A103M, M106I, Y108F
VL: B1 VL with Q89G, T93R
On to B15, for which, in experiment [3], the Kd is 0.166 nM, the “Relative Affinity” value was 19 fold vs 25 (Tocilizumab), the koff is 2.33e-05 s⁻¹ and the kon was determined as 140000 M⁻¹ s⁻¹.

B16: 9# (antibody, human IgG1, kappa, V domains shown)
VH: B1 VH with T58I, P62A, S99C, A103T
VL: B1 VL
notes: also called Sample # 9
Turning to B16, in experiment [1], the equilibrium dissociation constant (Kd) turned out to be 0.32 nM, the “Relative Affinity” value is 5.3 fold vs 25 (Tocilizumab), the koff came out at 6.28e-05 s⁻¹ and the kon came to 196000 M⁻¹ s⁻¹. Moreover, in experiment [2], binding was characterised by a dissociation constant (Kd) of 0.249 nM, the “Relative Affinity” value was 5.4 fold vs 25 (Tocilizumab), the koff amounted to 5.94e-05 s⁻¹ and the kon turned out to be 239000 M⁻¹ s⁻¹.

B17: 8# (antibody, human IgG1, kappa, V domains shown)
VH: B1 VH with Y51F, A103T, Y108F
VL: B1 VL
notes: also called Sample # 8
Consider B17, for which, in experiment [2], the Kd was found to be 0.893 nM, the “Relative Affinity” value was 1.5 fold vs 25 (Tocilizumab), the koff amounted to 0.000241 s⁻¹ and the kon is 270000 M⁻¹ s⁻¹.

B18: 13# (antibody, human IgG1, kappa, V domains shown)
VH: B1 VH with Y51F, S99C, A103T
VL: B1 VL
notes: also called Sample # 13
With B18, in experiment [2], binding was put at a Kd of 0.373 nM, the “Relative Affinity” value was 3.6 fold vs 25 (Tocilizumab), the koff was 0.0001 s⁻¹ and the kon was found to be 269000 M⁻¹ s⁻¹.

B19: 5# (antibody, human IgG1, kappa, V domains shown)
VH: B1 VH with Y51F, A103T
VL: B1 VL
notes: also called Sample # 5
Take B19: in experiment [2], the Kd stood at 0.882 nM, the “Relative Affinity” value is 1.5 fold vs 25 (Tocilizumab), the koff was 0.000234 s⁻¹ and the kon amounted to 266000 M⁻¹ s⁻¹.

B20: 243# (antibody, human IgG1, kappa, V domains shown)
VH: B1 VH with I57M, T58I, S99C, A103T, M106I, Y108F
VL: B1 VL with Q89G, T93R
Turning to B20, in experiment [3], the affinity, expressed as Kd, was 0.273 nM; the “Relative Affinity” value was 11.6 fold vs 25 (Tocilizumab); the koff came out at 1.94e-05 s⁻¹; the kon came to 71000 M⁻¹ s⁻¹.

B21: 240# (antibody, human IgG1, kappa, V domains shown)
VH: B1 VH with I57M, T58I
VL: B1 VL with Q89G, T93R
notes: also called Sample # 240
As for B21, in experiment [3], binding was put at a Kd of 0.15 nM, the “Relative Affinity” value was 21.1 fold vs 25 (Tocilizumab), the off-rate (koff) turned out to be 2.3e-05 s⁻¹ and the kon worked out at 154000 M⁻¹ s⁻¹.

B22: 246# (antibody, human IgG1, kappa, V domains shown)
VH: B1 VH with I57M, T58I, S99T, A103T, M106I, Y108F
VL: B1 VL with Q89G, T93R
B22: in experiment [3], the Kd is 0.0789 nM, the “Relative Affinity” value was 40.1 fold vs 25 (Tocilizumab), the koff amounted to 9.86e-06 s⁻¹ and the kon was 125000 M⁻¹ s⁻¹.

B23: 232# (antibody, human IgG1, kappa, V domains shown)
VH: B1 VH with I57M, T58I, S99T, A103M
VL: B1 VL
In the case of B23, in experiment [3], the Kd was found to be 0.319 nM, the “Relative Affinity” value was 9.9 fold vs 25 (Tocilizumab), the koff is 4.81e-05 s⁻¹ and the kon stood at 151000 M⁻¹ s⁻¹.

B24: 234# (antibody, human IgG1, kappa, V domains shown)
VH: B1 VH with I57M, S99C, A103M
VL: B1 VL
As for B24, in experiment [3], the Kd was found to be 0.37 nM, the “Relative Affinity” value was 8.5 fold vs 25 (Tocilizumab), the koff stood at 5.69e-05 s⁻¹ and the kon was found to be 154000 M⁻¹ s⁻¹.
